# Measurements: paper PMC5435087
# Key:
# Assay in all cases: BLI
# [1] = system: Boreoeutherian TARBP2 dsrm1 (reconstructed ancestor (Boreoeutheria)); conditions: Label-free kinetics assay (ForteBio, biotinylated RNA on streptavidin probes, biocytin block), 1x Kinetics Buffer, pH 7; temperature and salt not stated …; scale: fold lower affinity than ancestral TARBP2 dsrm1
# [2] = system: Eutherian PRKRA dsrm2 (reconstructed ancestor (Eutheria)); conditions: Label-free kinetics assay (ForteBio, biotinylated RNA on streptavidin probes, biocytin block), 1x Kinetics Buffer, pH 7; temperature and salt not stated …; scale: fold higher affinity than ancestral mammal PRKRA dsrm2
# [3] = system: Rosid dsrm1 (reconstructed ancestor (Rosids)); conditions: Label-free kinetics assay (ForteBio, biotinylated RNA on streptavidin probes, biocytin block), 1x Kinetics Buffer, pH 7; temperature and salt not stated …
# [4] = system: ancAnimal dsrm (reconstructed ancestor (animal)); conditions: Label-free kinetics assay (ForteBio, biotinylated RNA on streptavidin probes, biocytin block), 1x Kinetics Buffer, pH 7; temperature and salt not stated …
# [5] = system: ancAnimal dsrm + dsrm1 substitutions (reconstructed ancestor (animal)); conditions: Label-free kinetics assay (ForteBio, biotinylated RNA on streptavidin probes, biocytin block), 1x Kinetics Buffer, pH 7; temperature and salt not stated …
# [6] = system: ancAnimal dsrm + dsrm3 substitutions (reconstructed ancestor (animal)); conditions: Label-free kinetics assay (ForteBio, biotinylated RNA on streptavidin probes, biocytin block), 1x Kinetics Buffer, pH 7; temperature and salt not stated …
# [7] = system: ancAnimal dsrm1 (reconstructed ancestor (animal)); conditions: steady state; initial-rate Km 4.2 uM; Label-free kinetics assay (ForteBio, biotinylated RNA on streptavidin probes, biocytin block), 1x Kinetics Buffer, pH 7; temperature and salt not stated …
# [8] = system: ancAnimal dsrm2 (reconstructed ancestor (animal)); conditions: steady state; initial-rate Km 22.9 uM; Label-free kinetics assay (ForteBio, biotinylated RNA on streptavidin probes, biocytin block), 1x Kinetics Buffer, pH 7; temperature and salt not stated …
# [9] = system: ancAnimal dsrm3 (reconstructed ancestor (animal)); conditions: steady state; initial-rate Km 4.1 uM; Label-free kinetics assay (ForteBio, biotinylated RNA on streptavidin probes, biocytin block), 1x Kinetics Buffer, pH 7; temperature and salt not stated …
# [10] = system: ancPlant DRB4 dsrm1 (reconstructed ancestor (plant)); conditions: steady state; initial-rate Km 38.3 uM; Label-free kinetics assay (ForteBio, biotinylated RNA on streptavidin probes, biocytin block), 1x Kinetics Buffer, pH 7; temperature and salt not stated …
# [11] = system: ancPlant DRB6 dsrm2 (reconstructed ancestor (plant)); conditions: steady state; initial-rate Km 24.8 uM; Label-free kinetics assay (ForteBio, biotinylated RNA on streptavidin probes, biocytin block), 1x Kinetics Buffer, pH 7; temperature and salt not stated …
# [12] = system: ancPlant dsrm (reconstructed ancestor (plant)); conditions: Label-free kinetics assay (ForteBio, biotinylated RNA on streptavidin probes, biocytin block), 1x Kinetics Buffer, pH 7; temperature and salt not stated …
# [13] = system: ancPlant dsrm + dsrm2 alpha2 (reconstructed ancestor (plant)); conditions: Label-free kinetics assay (ForteBio, biotinylated RNA on streptavidin probes, biocytin block), 1x Kinetics Buffer, pH 7; temperature and salt not stated …
# [14] = system: ancPlant dsrm2 (reconstructed ancestor (plant)); conditions: steady state; initial-rate Km 4.2 uM; Label-free kinetics assay (ForteBio, biotinylated RNA on streptavidin probes, biocytin block), 1x Kinetics Buffer, pH 7; temperature and salt not stated …
# [15] = system: ancPlant dsrm2 H31L (reconstructed ancestor (plant)); conditions: Label-free kinetics assay (ForteBio, biotinylated RNA on streptavidin probes, biocytin block), 1x Kinetics Buffer, pH 7; temperature and salt not stated …; scale: fold change in Kd
# [16] = system: ancestral TARBP2 dsrm1 + QV insertion (reconstructed ancestor (mammal)); conditions: Label-free kinetics assay (ForteBio, biotinylated RNA on streptavidin probes, biocytin block), 1x Kinetics Buffer, pH 7; temperature and salt not stated …; scale: fold lower affinity than ancestral TARBP2 dsrm1
# [17] = system: ancestral dsrm1 before Rosid shift (reconstructed ancestor (plant)); conditions: Label-free kinetics assay (ForteBio, biotinylated RNA on streptavidin probes, biocytin block), 1x Kinetics Buffer, pH 7; temperature and salt not stated …
# [18] = system: ancestral plant DRB4 dsrm1 (before Fabaceae shift) (reconstructed ancestor (plant)); conditions: Label-free kinetics assay (ForteBio, biotinylated RNA on streptavidin probes, biocytin block), 1x Kinetics Buffer, pH 7; temperature and salt not stated …
# [19] = system: ancestral plant DRB4 dsrm1 + H31 (reconstructed ancestor (plant)); conditions: Label-free kinetics assay (ForteBio, biotinylated RNA on streptavidin probes, biocytin block), 1x Kinetics Buffer, pH 7; temperature and salt not stated …; scale: fold higher affinity than ancestral plant DRB4 dsrm1
substance,measurement,setting,value
short dsRNA,binding signal,[1],10
same,binding signal,[2],3.79
same,Kd,[3],4.89 pKd
same,Kd,[4],17.2 µM
same,binding signal (fold higher affinity than ancAnimal dsrm),[5],3
same,binding signal (fold higher affinity than ancAnimal dsrm),[6],4.3
same,Kd,[7],4 µM
same,Kd,[8],24.6 µM
same,Kd,[9],3.2 µM
same,Kd,[10],38.9 µM
same,Kd,[11],24.4 µM
same,Kd,[12],59.2 µM
same,binding signal (fold higher affinity than ancPlant dsrm),[13],9.1
same,Kd,[14],5.2 µM
same,binding signal,[15],6.6
same,binding signal,[16],10
same,Kd,[17],4.41 pKd
same,Kd,[18],4.31 pKd
same,binding signal,[19],8.1
